According to the supplement of paper PMC10567573:

B1: TRAF3IP2 (parent)
chain: YGHDYPRAAYQQVIQPALPGQPLP

Variants of: B1
Test: protein stability index of a GFP-peptide fusion (GPS, HEK-293T) (PSI 1-6); higher = more stable
Conditions: c terminus: a fixed tail appended
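Also: lentivirally expressed fusions sorted by FACS into six bins by GFP to DsRed ratio, PSI derived from sequencing read proportions per bin multiplied by bin number.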

Row | Variant | protein stability index
1 | YGHDYPRAAYQQLIQPALPGQPLP [V13L] | 2.26
2 | YGHDYPRAAYQQTIQPALPGQPLP [V13T] | 1.83
3 | YGHDYPRAAYQQDIQPALPGQPLP [V13D] | 2.64
4 | YGHDYPRAAYQQHIQPALPGQPLP [V13H] | 2.02
5 | YGHDYPRAAYQQQIQPALPGQPLP [V13Q] | 2.25
6 | YGHDYPRAAYQQWIQPALPGQPLP [V13W] | 2.4
7 | YGHDYPRAAYQQEIQPALPGQPLP [V13E] | 1.74
8 | YGHDYPRAAYQQNIQPALPGQPLP [V13N] | 2.09
9 | YGHDYPRAAYQQPIQPALPGQPLP [V13P] | 2.52
10 | YGHDYPRAAYQQKIQPALPGQPLP [V13K] | 1.75
11 | YGHDYPRAAYQQFIQPALPGQPLP [V13F] | 2.38
12 | YGHDYPRAAYQQIIQPALPGQPLP [V13I] | 1.98
13 | YGHDYPRAAYQQGIQPALPGQPLP [V13G] | 2.45
14 | YGHDYPRAAYQQCIQPALPGQPLP [V13C] | 2.04
15 | YGHDYPRAAYQQSIQPALPGQPLP [V13S] | 2.6
16 | YGHDYPRAAYQQMIQPALPGQPLP [V13M] | 1.95
17 | YGHDYPRAAYQQRIQPALPGQPLP [V13R] | 1.93
18 | YGHDYPRAAYQQAIQPALPGQPLP [V13A] | 2.17
19 | YGHDYPRAAYQQYIQPALPGQPLP [V13Y] | 2.03
20 | YGHDYPRAAYQQVIQPLLPGQPLP [A17L] | 3.12
21 | YGHDYPRAAYQQVIQPTLPGQPLP [A17T] | 2.62
22 | YGHDYPRAAYQQVIQPNLPGQPLP [A17N] | 1.29
23 | YGHDYPRAAYQQVIQPWLPGQPLP [A17W] | 1.92
24 | YGHDYPRAAYQQVIQPCLPGQPLP [A17C] | 2.32

Row | Variant | protein stability index
25 | YGHDYPRAAYQQVIQPSLPGQPLP [A17S] | 2.43
26 | YGHDYPRAAYQQVIQPILPGQPLP [A17I] | 2.37
27 | YGHDYPRAAYQQVIQPDLPGQPLP [A17D] | 2.36
28 | YGHDYPRAAYQQVIQPHLPGQPLP [A17H] | 2.08
29 | YGHDYPRAAYQQVIQPGLPGQPLP [A17G] | 1.46
30 | YGHDYPRAAYQQVIQPVLPGQPLP [A17V] | 2.41
31 | YGHDYPRAAYQQVIQPELPGQPLP [A17E] | 2
32 | YGHDYPRAAYQQVIQPPLPGQPLP [A17P] | 2.2
33 | YGHDYPRAAYQQVIQPMLPGQPLP [A17M] | 1.95
34 | YGHDYPRAAYQQVIQPFLPGQPLP [A17F] | 2.48
35 | YGHDYPRAAYQQVIQPYLPGQPLP [A17Y] | 1.83
36 | YGHDYPRAAYQQVIQPRLPGQPLP [A17R] | 1.74
37 | YGHDYPRAAYQQVIQPKLPGQPLP [A17K] | 1.98
38 | YGHDYPRAAYQQVIQPQLPGQPLP [A17Q] | 1.72
39 | YGHDYPRAAYQQVIQPALPCQPLP [G20C] | 2.04
40 | YGHDYPRAAYQQVIQPALPEQPLP [G20E] | 2.52
41 | YGHDYPRAAYQQVIQPALPFQPLP [G20F] | 1.8
42 | YGHDYPRAAYQQVIQPALPDQPLP [G20D] | 2.78
43 | YGHDYPRAAYQQVIQPALPHQPLP [G20H] | 2.33
44 | YGHDYPRAAYQQVIWPALPGQPLP [Q15W] | 3.01
45 | YGHDYPRAAYQQVIDPALPGQPLP [Q15D] | 2.6
46 | YGHDYPRAAYQQVIYPALPGQPLP [Q15Y] | 2.53
47 | YGHDYPRAAYQQVILPALPGQPLP [Q15L] | 2.23
48 | YGHDYPRAAYQQVIRPALPGQPLP [Q15R] | 2.24

Row | Variant | protein stability index
49 | YGHDYPRAAYQQVICPALPGQPLP [Q15C] | 2.22
50 | YGHDYPRAAYQQVINPALPGQPLP [Q15N] | 1.63
51 | YGHDYPRAAYQQVIIPALPGQPLP [Q15I] | 2.14
52 | YGHDYPRAAYQQVIAPALPGQPLP [Q15A] | 1.74
53 | YGHDYPRAAYQQVIKPALPGQPLP [Q15K] | 1.82
54 | YGHDYPRAAYQQVIEPALPGQPLP [Q15E] | 2.1
55 | YGHDYPRAAYQQVIFPALPGQPLP [Q15F] | 2.68
56 | YGHDYPRAAYQQVIPPALPGQPLP [Q15P] | 2.45
57 | YGHDYPRAAYQQVITPALPGQPLP [Q15T] | 1.62
58 | YGHDYPRAAYQQVIVPALPGQPLP [Q15V] | 1.68
59 | YGHDYPRAAYQQVIMPALPGQPLP [Q15M] | 1.59
60 | YGHDYPRAAYQQVIHPALPGQPLP [Q15H] | 2.46
61 | YGHDYPRAAYQQVIGPALPGQPLP [Q15G] | 2.42
62 | YGHDYPRAAYQQVISPALPGQPLP [Q15S] | 2.01
63 | YGHDYPRAAYQQVIQPALGGQPLP [P19G] | 1.9
64 | YGHDYPRAAYQQVIQPALVGQPLP [P19V] | 2.35
65 | YGHDYPRAAYQQVIQPALYGQPLP [P19Y] | 1.87
66 | YGHDYPRAAYQQVIQPALRGQPLP [P19R] | 1.76
67 | YGHDYPRAAYQQVIQPALEGQPLP [P19E] | 2.42
68 | YGHDYPRAAYQQVIQPALNGQPLP [P19N] | 2.07
69 | YGHDYPRAAYQQVIQPALFGQPLP [P19F] | 2.44
70 | YGHDYPRAAYQQVIQPALCGQPLP [P19C] | 2.24
71 | YGHDYPRAAYQQVIQPALSGQPLP [P19S] | 2.45
72 | YGHDYPRAAYQQVIQPALAGQPLP [P19A] | 1.99

Row | Variant | protein stability index
73 | YGHDYPRAAYQQVIQPALQGQPLP [P19Q] | 1.54
74 | YGHDYPRAAYQQVIQPALHGQPLP [P19H] | 1.65
75 | YGHDYPRAAYQQVIQPALIGQPLP [P19I] | 2.54
76 | YGHDYPRAAYQQVIQPALDGQPLP [P19D] | 1.98
77 | YGHDYPRAAYQQVIQPALTGQPLP [P19T] | 2.65
78 | YGHDYPRAAYQQVIQPALWGQPLP [P19W] | 1.73
79 | YGHDYPRAAYQQVIQPALKGQPLP [P19K] | 2.14
80 | YGHDYPRAAYQQVIQPALLGQPLP [P19L] | 2.5
81 | YGHDYPRAAYQQVIQPALMGQPLP [P19M] | 2.34
82 | YGHDYPRAAYQQVIQPAIPGQPLP [L18I] | 2.16
83 | YGHDYPRAAYQQVIQPAFPGQPLP [L18F] | 2.59
84 | YGHDYPRAAYQQVIQPANPGQPLP [L18N] | 2.25
85 | YGHDYPRAAYQQVIQPAQPGQPLP [L18Q] | 2.24
86 | YGHDYPRAAYQQVIQPADPGQPLP [L18D] | 2.17
87 | YGHDYPRAAYQQVIQPAMPGQPLP [L18M] | 1.9
88 | YGHDYPRAAYQQVIQPAEPGQPLP [L18E] | 2.06
89 | YGHDYPRAAYQQVIQPAAPGQPLP [L18A] | 1.75
90 | YGHDYPRAAYQQVIQPAHPGQPLP [L18H] | 1.9
91 | YGHDYPRAAYQQVIQPAVPGQPLP [L18V] | 1.65
92 | YGHDYPRAAYQQVIQPAGPGQPLP [L18G] | 2.01
93 | YGHDYPRAAYQQVIQPAWPGQPLP [L18W] | 2.01
94 | YGHDYPRAAYQQVIQPARPGQPLP [L18R] | 2.12
